First the molecules themselves.
B1: Serine/threonine-protein kinase Chk1 (Homo sapiens), O14757 (parent)
chain: MAVPFVEDWDLVQTLGEGAYGEVQLAVNRVTEEAVAVKIVDMKRAVDCPENIKKEICINKMLNHENVVKFYGHRREGNIQYLFLEYCSGGELFDRIEPDIGMPEPDAQRFFHQLMAGVVYLHGIGITHRDIKPENLLLDERDNLKISDFGLATVFRYNNRERLLNKMCGTLPYVAPELLKRREFHAEPVDVWSCGIVLTAMLAGELPWDQPSDSCQEYSDWKEKKTYLNPWKKIDSAPLALLHKILVENPSARITIPDIKKDRWYNKPLKKGAKRPRVTSGGVSESPSGFSKHIQSNLDFSPVNSASSEENVKYSSSQPEPRTGLSLWDTSPSYIDKLVQGISFSQPTCPDHMLLNSQLLGTPGSSQNPWQRLVKRMTRFFTKLDADKSYQCLKETCEKLGYQWKKSCMNQVTISTTDRRNNKLIFKVNLLEMDDKILVDFRLSKGDGLEFKRHFLKIKGKLIDIVSSQKIWLPAT
partner: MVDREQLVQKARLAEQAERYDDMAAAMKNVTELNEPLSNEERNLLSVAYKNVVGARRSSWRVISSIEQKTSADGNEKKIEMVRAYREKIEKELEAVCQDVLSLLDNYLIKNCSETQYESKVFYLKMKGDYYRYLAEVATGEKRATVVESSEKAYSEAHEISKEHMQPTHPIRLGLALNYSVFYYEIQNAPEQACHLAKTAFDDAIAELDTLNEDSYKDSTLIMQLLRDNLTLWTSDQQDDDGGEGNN

Variants of B1 are the subject of the first test. The settings on record: with 1433g_human YWHAG.
For the variant MAVPFVEDWDLVQTLGEGAYGEVQLAVNRVTEEAVAVKIVDMKRAVDCPENIKKEICINKMLNHENVVKFYGHRREGNIQYLFLEYCSGGELFDRIEPDIGMPEPDAQRFFHQLMAGVVYLHGIGITHRDIKPENLLLDERDNLKISDFGLATVFRYNNRERLLNKMCGTLPYVAPELLKRREFHAEPVDVWSCGIVLTAMLAGELPWDQPSDSCQEYSDWKEKKTYLNPWKKIDSAPLALLHKILVENPSARITIPDIKKDRWYNKPLKKGAKRPRVTSGGVSESPSGFSKHIQANLDFSPVNSASSEENVKYSSSQPEPRTGLSLWDTSPSYIDKLVQGISFSQPTCPDHMLLNSQLLGTPGSSQNPWQRLVKRMTRFFTKLDADKSYQCLKETCEKLGYQWKKSCMNQVTISTTDRRNNKLIFKVNLLEMDDKILVDFRLSKGDGLEFKRHFLKIKGKLIDIVSSQKIWLPAT [S296A], the “effect of a mutation on the interaction” value is on record as “disrupting interaction”.

The variants in the next test derive from B1. The settings on record: with 1433g_human YWHAG. The source holds these as a separate data set.
On to MAVPFVEDWDLVQTLGEGAYGEVQLAVNRVTEEAVAVMIVDMKRAVDCPENIKKEICINKMLNHENVVKFYGHRREGNIQYLFLEYCSGGELFDRIEPDIGMPEPDAQRFFHQLMAGVVYLHGIGITHRDIKPENLLLDERDNLKISDFGLATVFRYNNRERLLNKMCGTLPYVAPELLKRREFHAEPVDVWSCGIVLTAMLAGELPWDQPSDSCQEYSDWKEKKTYLNPWKKIDSAPLALLHKILVENPSARITIPDIKKDRWYNKPLKKGAKRPRVTSGGVSESPSGFSKHIQSNLDFSPVNSASSEENVKYSSSQPEPRTGLSLWDTSPSYIDKLVQGISFSQPTCPDHMLLNSQLLGTPGSSQNPWQRLVKRMTRFFTKLDADKSYQCLKETCEKLGYQWKKSCMNQVTISTTDRRNNKLIFKVNLLEMDDKILVDFRLSKGDGLEFKRHFLKIKGKLIDIVSSQKIWLPAT [K38M], for which the “effect of a mutation on the interaction” value is “disrupting interaction”.

For the origin of these results see IntAct's records for PubMed 20639859.
